In patent publication US20230192818A1:

What was measured:
[1] = molecular target: Delta spike trimer (SARS-CoV-2), P0DTC2; conditions: remark: other sources report otherwise
[2] = molecular target: Antibody 178-09_His B.1.1.7 (27080) (SARS-CoV-2), P0DTC2; assay: SPR (Carterra); conditions: remark: other sources report otherwise

B1: 3-31 (Fc fusion)
chain: EVQLVESGGGLVQPGGSLRLSCAASGSTFSINAMGWFRQAPGKEREFVAGITSSGGYTNYADSVKGRFTISADNSKNTAYLQMNSLKPEDTAVYYCAADGVPEYSDYASGPVWGQGTLVTVSS
B1 gave an IC50 [1] of 3 nM and a Kd [2] of 16.1 nM.
